Our source for the % of cells in the upper left quadrant (FL1-H above the line, low FSC-H), Kd and % of cells in the upper right quadrant (FL1-H above the line, high FSC-H) values is patent publication US20100183642A1 (CENTRE NATIONAL DE LA RECHERCHE SCIENTIFIQUE, published 2010).

Non-standard residues stand in square brackets, D forms with d. No end group written: not given here. *: point of attachment. Biotin = O=C1N[C@H]2[C@H](CS[C@H]2CCCCC(=O)*)N1; Ahx = NCCCCCC(=O)O

Assay [1] deals with membranous CD40 on Burkitt's lymphoma cells (BL41, Raji) (UniProt P25942). Nature of the assay: flow cytometry on BL41 cells, 2.5 µM biotinylated L41 developed with streptavidin-FITC; the control panel without streptavidin-FITC (BL41 L41 2.5 -SAvFITC) prints 4.3% for the same quadrant.
For assay [2], the target named is recombinant CD40 associated with the constant part of the heavy chain of mouse IgG2a (human CD40 muIg fusion protein, ANCELL Corporation) (human; mouse) (UniProt P25942). Nature of the assay: SPR (BIAcore 3000): CD40 muIg captured by anti-mouse Ig, ligand injected as analyte.
The target of assay [3] is membranous CD40 on Burkitt's lymphoma cells (BL41, Raji) (UniProt P25942). Nature of the assay: flow cytometry on BL41 cells, 2.5 µM biotinylated L41 developed with streptavidin-FITC; the control panel without streptavidin-FITC (BL41 L41 2.5 -SAvFITC) prints 1.3% for the same quadrant.
The target in assay [4] is T1, recombinant CD40 associated with the constant part of the heavy chain of mouse IgG2a (human CD40 muIg fusion … (human; mouse, UniProt P25942 21-193, limits assumed).
T1 construct: Bought reagent; Captured on the chip by rabbit antibodies against the constant part of mouse immunoglobulins; not shown: constant part of the heavy chain of mouse IgG2a
Nature of the assay: SPR (BIAcore 3000): CD40 muIg captured by anti-mouse Ig, ligand injected as analyte.

Sequence of membranous CD40 on Burkitt's lymphoma cells (BL41, Raji) (P25942 21-277 limits assumed): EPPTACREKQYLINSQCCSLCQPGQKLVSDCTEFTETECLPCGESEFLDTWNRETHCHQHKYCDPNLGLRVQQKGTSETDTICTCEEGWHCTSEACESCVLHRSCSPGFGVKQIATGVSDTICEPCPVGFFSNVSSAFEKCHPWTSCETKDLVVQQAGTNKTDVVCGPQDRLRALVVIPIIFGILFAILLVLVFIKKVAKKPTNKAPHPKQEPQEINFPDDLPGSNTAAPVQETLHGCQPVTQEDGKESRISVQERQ
Sequence of recombinant CD40 associated with the constant part of the heavy chain of mouse IgG2a (human CD40 muIg fusion protein, ANCELL Corporation) (human; mouse) (P25942 21-193 limits assumed): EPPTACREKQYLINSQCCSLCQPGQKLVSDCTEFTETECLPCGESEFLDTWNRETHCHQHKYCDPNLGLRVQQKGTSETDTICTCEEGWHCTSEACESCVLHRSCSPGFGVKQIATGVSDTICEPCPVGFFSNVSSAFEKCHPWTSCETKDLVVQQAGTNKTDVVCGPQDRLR
T1 sequence (P25942 21-193 limits assumed): as above

B1: L41 ligand (compound A), biotinylated (peptide)
peptide: KGYY[Ahx]
chain: [dA]K[dK](Biotin)K[dA]K
modifications: also: three KGYY-Ahx arms, each Ahx amide-linked to side-chain amines of Lys2, Lys4, Lys6 of the cyclic chain, head-to-tail to a chain's N/C-terminus
Molecule B1 came in with a % of cells in the upper left quadrant (FL1-H above the line, low FSC-H) in assay [1] of 10.2%. For the same molecule, the Kd in assay [2] stood at 28 nM. This molecule also displayed a % of cells in the upper right quadrant (FL1-H above the line, high FSC-H) in assay [3] of 23.5%.

B2: L40 ligand, compound of formula (III-e) (peptide)
peptide: H-K[dP]YY[Ahx]
chain: K[dA]K[dA]K[dA]
modifications: also: chain 2 cyclised head to tail, three chain-1 arms, each Ahx carboxyl amide-linked to one Lys side-chain amine of cyclic chain 2 (C3-symmetric trimer), head-to-tail to a chain's N/C-terminus
notes: Branched synthetic trimer with C3 symmetry: three pentapeptide arms on a cyclic hexapeptide
As to B2, the Kd in assay [4] was 310 nM.
